Publication PMC6904456

B1: non specific aptamer sequence (ssDNA)
DNA: CACCAATATTTACGTTCTACTCTCCAATA
modifications: 5' BiotinTEG
B2: TBA29 (biotin-TBA29 thrombin aptamer) (ssDNA)
DNA: AGTCCGTGGTAGGGCAGGTTGGGGTGACT
modifications: 5' BiotinTEG

Columns and labels:
Thrombin (THR) [1] = biological target: T1, Thrombin (THR) (UniProt P00734;P00734 328-363;364-622); test: SPR (D-shaped plastic optical fibre); 1-50 nM thrombin, no shift of resonance wavelength; Immobilization in 10 mM phosphate, 138 mM NaCl, 2.7 mM KCl, pH 7.4; sensing in binding buffer (composition and temperature not given in material)
Thrombin (THR) [2] = biological target: T1, Thrombin (THR); test: SPR (D-shaped plastic optical fibre, Langmuir fit); 10 uM aptamer for immobilization; Langmuir K, printed as K [nM]; Immobilization in 10 mM phosphate, 138 mM NaCl, 2.7 mM KCl, pH 7.4; sensing in binding buffer (composition and temperature not given in material)

Binder	binding result (Thrombin (THR) [1])	Kd (Thrombin (THR) [2]) [nM]
B1	no binding	–
B2	–	21.8
